Data reported in patent publication US8440413B2, “Method of screening for a substance that strengthens a bond between thioredoxin and macrophage migration inhibition factor” (Redox Bioscience, Inc., priority 2006, dated 2013).
Like-named read-outs stand apart in the source and are kept apart here.

T1: bond between rTRX and rMIF (Homo sapiens, UniProt P10599)
T1 construct: His tag; made in house; host or cells: Escherichia coli
T1 sequence (P10599 1-105): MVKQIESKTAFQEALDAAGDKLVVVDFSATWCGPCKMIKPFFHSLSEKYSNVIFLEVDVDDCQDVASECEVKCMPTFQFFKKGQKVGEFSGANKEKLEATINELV

T2: rMIF (Homo sapiens, UniProt P14174)
T2 construct: His tag; made in house; host or cells: Escherichia coli
T2 sequence (P14174 1-115): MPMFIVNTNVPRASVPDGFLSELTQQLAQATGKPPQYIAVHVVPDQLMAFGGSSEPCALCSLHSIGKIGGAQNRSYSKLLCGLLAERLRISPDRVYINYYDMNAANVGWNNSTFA

T3: MIF (Homo sapiens, UniProt P14174)
T3 construct: endogenous in cells; host or cells: ATL2 cells (concentrated culture supernatant)
T3 sequence (P14174 1-115): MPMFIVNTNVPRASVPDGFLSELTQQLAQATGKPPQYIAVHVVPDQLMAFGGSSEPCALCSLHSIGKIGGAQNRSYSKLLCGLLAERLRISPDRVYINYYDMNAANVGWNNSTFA


Experiments:
[1] = biological target: T1, bond between rTRX and rMIF; assay: Screening by molecular interaction analysis (Biacore, SPR) for substances that strengthen the bond between TRX and MIF, Example 7; type: binding; conditions: analyte: rTRX 5 μM mixed with test substance 500 μM (Prostaglandin I2 also 5 μM); compared with rTRX only (FIGS. 7 to 11)
Experimental: For several test substances, it was confirmed with a molecular interaction analysis whether they strengthened the bond between TRX and MIF or not. rMIF was immobilized in a CM5 sensor chip as a ligand. The ligand was adjusted to have the rMIF concentration of less or equal to 200 nM by using running buffer, 10 mM HEPES (pH7.4), 150 mM NaCl, 3 mM EDTA and 0.005% Tween 20. […] In each analyte, the concentration of rTRX was 5 μM and the concentration of the test substance was 500 μM. For Prostaglandin I2, the analyte having its concentration of 5 μM was also analyzed.

rMIF [2] = biological target: T2, rMIF; assay: Molecular interaction analysis (Biacore, SPR) of rTRX variants and rMIF in oxidation and reduction states, Example 6; type: binding; conditions: for change of the dissociation constant value between oxidation state and reduction state: oxidation state versus reduction state; for Kd: rMIF immobilized on CM5 sensor chip, read-out: KD (dissociation constant value)
Experimental: It was confirmed with a molecular interaction analysis whether the cysteine residues at 32 and 35 positions (the active site of TRX) affect the bond between TRX and MIF or not.
rMIF was immobilized in a CM5 sensor chip as a ligand, wherein the concentration of rMIF was adjusted to less than or equal to 200 nM.
Then, rWT TRX, rDM TRX and rC35S TRX were used as analytes to analyze the interaction between these rTRX and rMIF in both oxidation and reduction states, respectively.
In the oxidation state, running buffer, 10 mM HEPES (pH7.4), 150 mM NaCl, 3 mM EDTA and 0.005% Tween 20 were used to adjust the ligand. In the reduction state, 1M DTT was used in addition to the running buffer, 10 mM HEPES (pH7.4), 150 mM NaCl, 3 mM EDTA and 0.005% Tween 20 to adjust the ligand.
Tables 1 and 2 show the dissociation constant value (KD value) calculated from FIG. 6.

MIF [3] = biological target: T3, MIF; assay: Immunoprecipitation / Western blotting of the bond between TRX and MIF outside ATL2 cells (culture supernatant); type: binding; conditions: anti MIF antibody immunoprecipitation, anti TRX Western blotting (FIG. 2)
Experimental: The bond between TRX and MIF outside ATL2 cells was confirmed with an immunoprecipitation method.
1×10^5/cell of the ATL2 cells were cultured with RPMI 1640 (SIGMA Inc.) medium containing 100 U/ml penicillin and 100 μg/ml streptomycin in a 175 cm^2 flask for 3 days. Then, the medium was collected and centrifugated at 10,000 rpm and 4° C. for 15 minutes. Then, FCS was added to the obtained supernatant to adjust the final concentration to 10%, and the solution was concentrated with Amicon ultra-4. The obtained concentrated-solution was used for the immunoprecipitation experiment. 20 μl Protein G Sepharose and 30 μl of the culture supernatant were added to a microtube, and phosphate buffer was used to adjust the amount to 1 ml. The obtained solution was reacted at 4° C. for 3 hours with a small rotary incubator. The cell solution was centrifugated at 15,000 rpm and 4° C. for 2 minutes. The obtained supernatant was added to a new microtube, and 20 μl Protein G Sepharose and 4 μg/ml of the anti MIF antibody were also added thereto.
(§1) For a control, anti Rabbit antibody was used instead of the anti MIF antibody.
The reaction was carried out with a small rotary incubator at 4° C. for overnight. The reaction solution was centrifugated at 15,000 rpm and 4° C. for 2 minutes. The precipitation was washed with washing buffer (50 mM Tris-HCl (pH7.5), 150 mM NaCl, 0.1% NP40). […]

ATL2 cells = assay: Inhibition of the cell internalization of MIF into ATL2 cells (Western blotting, densitometer); type: cell-based, human; conditions: rTRX 0 to 250 μg/ml, 25 μg/ml rMIF, 24 hours (FIG. 3)
Experimental: MIF is internalized (incorporated) into cells by the autocrine or paracrine action to induce the production of inflammatory cytokine TNF-alpha(α) or IL-1. Thus, the effects of TRX on the cell internalization of MIF were examined to clarify the inflammation response control mechanism.
ATL2 cells were cultured with RPMI 1640 medium containing 10% FCS, 100 U/ml penicillin and 100 μg/ml streptomycin in a 75 cm^2 flask.
1×10^6/cell of ATL2 cells were added to a 24 well plate. rTRX having the final concentration of 0 to 250 μg/ml and 25 μg/ml rMIF were also added thereto, and cultured under the condition of […] at 37° C. for 24 hours.
After cells were collected, the precipitation was mixed with SDS-PAGE sample buffer, and then electrophoresed on a 15% SDS-PAGE gel. After the electrocataphoresis, a Western blotting was performed to detect MIF internalized in the cells with anti His-tagged antibody. The change of the band by the Western blotting was analyzed with a densitometer.

MIF [4] = biological target: T3, MIF; assay: Immunoprecipitation / Western blotting of the bond between TRX and MIF in cells; type: cell-based; conditions: ATL2 cells and HL60 cells; anti MIF antibody immunoprecipitation, anti TRX Western blotting (FIG. 1)
Experimental: The bonds between TRX and MIF in ATL2 cells and HL60 cells were confirmed with an immunoprecipitation method (to be described in detail below).
The cells were cultured with RPMI 1640 (SIGMA Inc.) medium containing 10% FCS, 100 U/ml penicillin and 100 μg/ml streptomycin in a 175 cm^2 flask.
1×10^7˜8/cell of the cells were collected and centrifugated at 1,000 rpm and 4° C. for 15 minutes. The obtained precipitation was dissolved with lysis buffer and left on the ice for 30 minutes.
The solution was centrifugated at 1,000 rpm and 4° C. for 15 minutes. The obtained supernatant was used for the immunoprecipitation experiment. The concentration of the protein was measured with DC protein assay kit (BIO RAD Inc.).
20 μl Protein G Sepharose and 500 μg of the cell solution were added to a microtube, and phosphate buffer was used to adjust the amount to 1 ml. The obtained solution was reacted at 4° C. for 3 hours with a small rotary incubator. The cell solution was centrifugated at 15,000 rpm and 4° C. for 2 minutes. The obtained supernatant was added to a new microtube, and 20 μl Protein G Sepharose and 4 μg/ml anti MIF antibody were also added thereto.
as §1
The reaction was carried out with a small rotary incubator at 4° C. for overnight. The reaction solution was centrifugated at 15,000 rpm and 4° C. for 2 minutes. […]

RAW 264.7 cells = assay: Inhibition of MIF activity measured as TNF-alpha production in RAW 264.7 cells (ELISA); type: cell-based, mouse; conditions: MIF 10 ng/ml, 0 to 500 ng/ml TRX, LPS 100 ng/ml (FIG. 4)
Experimental: TRX's inhibition of MIF activity was confirmed by measuring a concentration of inflammatory cytokine TNF-α (to be described in detail below).
RAW 264.7 cells were cultured with RPMI 1640 medium containing 10% FCS, 100 U/ml penicillin and 100 μg/ml streptomycin in a 75 cm^2 flask.
RAW 264.7 cells were added to a 24 well plate (1×10^6/cell). MIF having a final concentration of 10 ng/ml and 0 to 500 ng/ml TRX were also added thereto, and left under the condition of 5% CO2 at 37° C. for 4 hours.
Further, 100 ng/ml of LPS was added to the plate (described as LPS (+)), and the plate was left under the condition of 5% CO2 at 37° C. for 4 hours. Then, the medium was collected.
Amount of the generated TNF-alpha (α) was measured with Duo Set ELISA Development system mouse TNF-α kit.
The measuring method was based on the protocol attached to the kit.

rMIF [5] = biological target: T2, rMIF; assay: Molecular interaction analysis (Biacore, SPR) of the bond between rTRX and rMIF, Example 5; type: binding; conditions: rMIF immobilized on CM5 sensor chip; rTRX 2 to 12 μM (FIG. 5)
Experimental: The bond between TRX and MIF was confirmed with a molecular interaction analysis (Biacore) (hereinafter, referred to as “molecular interaction analysis”) utilizing surface plasmon resonance (SPR) phenomenon.
rMIF was immobilized in a CM5 sensor chip as a ligand. The ligand was adjusted to include MIF less or equal to 200 nM by using running buffer, 10 mM HEPES (pH7.4), 150 mM NaCl, 3 mM EDTA and 0.005% Tween 20.
Then, rTRX was used as an analyte to analyze the interaction between rTRX and rMIF. The concentration of rTRX was changed to 2 μM, 4 μM, 6 μM, 8 μM, 10 μM and 12 μM for the analysis.

[6] = reduction state (DTT added to running buffer)

| Molecule | effect of the test substance on the bond between rTRX and rMIF [1] | direct bond with rMIF (rMIF [2]; FIG. 6, Tables 1 and 2) | change of the dissociation constant value between oxidation state and reduction state (rMIF [2]) | Kd (rMIF [2]; oxidation state) [µM] | Kd (rMIF [2]; [6]) [µM] | other results |
| --- | --- | --- | --- | --- | --- | --- |
| N[C@@H](CCC(=O)N[C@@H](CSN=O)C(=O)NCC(=O)O)C(=O)O [Nitrosoglutathione] | remarkably strengthen the bond between rTRX and rMIF | – | – | – | – | – |
| CCCCC[C@H](O)/C=C/[C@@H]1[C@H]2C/C(=C/CCCC(=O)O)O[C@H]2C[C@H]1O [Prostaglandin I2] | remarkably strengthen the bond between rTRX and rMIF | – | – | – | – | – |
| rTRX: Recombinant thioredoxin; His-tagged, expressed in Escherichia coli (Examples 5-7); from Ajinomoto in Examples 3-4 (protein, left off: small tags and cut ends) MVKQIESKTAFQEALDAAGDKLVVVDFSATWCGPCKMIKPFFHSLSEKYSNVIFLEVDVDDCQDVASECEVKCMPTFQFFKKGQKVGEFSGANKEKLEATINELV | – | bonded directly with rMIF | almost no changes in the dissociation constant values | 25.3 | 29.7 | bond between TRX and MIF outside cells (MIF [3]): bonds directly with MIF; internalization of MIF into cells (ATL2 cells): inhibits the internalization of MIF into the ATL2 cells; bond between TRX and MIF in cells (MIF [4]): bonds directly with MIF; inhibition of rMIF activity (RAW 264.7 cells): inhibits the activity of rMIF depending on the concentration of rTRX; production of MIF-derived TNF-alpha (RAW 264.7 cells): inhibits the production of MIF-derived TNF-alpha; bond between rTRX and rMIF (surface plasmon resonance) (rMIF [5]): concentration-dependent |
| rDM TRX: the rTRX of Example 5 in which the cysteine residues at 32 and 35 positions were converted to serine (protein, left off: small tags and cut ends) MVKQIESKTAFQEALDAAGDKLVVVDFSATWSGPSKMIKPFFHSLSEKYSNVIFLEVDVDDCQDVASECEVKCMPTFQFFKKGQKVGEFSGANKEKLEATINELV | – | bonded directly with rMIF | almost no changes in the dissociation constant values | 11.9 | 16.6 | – |
| rC35S TRX: the rTRX of Example 5 in which the cysteine residue at 35 position was converted to serine (protein, left off: small tags and cut ends) MVKQIESKTAFQEALDAAGDKLVVVDFSATWCGPSKMIKPFFHSLSEKYSNVIFLEVDVDDCQDVASECEVKCMPTFQFFKKGQKVGEFSGANKEKLEATINELV | – | bonded directly with rMIF | strong bond with rMIF in the oxidation state | 3.95 | – | strength of the bond with rMIF compared with the other rTRX (rMIF [2]; FIG. 6, Tables 1 and 2): stronger than the bond between rWT TRX or rDM TRX and MIF |
